Measured values published in US20090170718, “High-stringency screening of target-binding partners using a microfludic device” (published 2009).

Key:
[1] = target: T1, Botulinum neurotoxin type A light chain (BoNT/A-rLc) (UniProt P0DPI1 P0DPI1:2-448); assay: SPR; details: tags: List Biological Laboratories; coupled via amines to Dynabeads M-270 carboxylic acid for selection and bead assays
[2] = target: T1, Botulinum neurotoxin type A light chain …; assay: SPR; 20 mM HEPES, 150 mM NaCl, 2 mM KCl, 2 mM MgCl2, 2 mM CaCl2, pH 7.4; […]; details: tags: List Biological Laboratories; coupled via amines to Dynabeads M-270 carboxylic acid for selection and bead assays

B1: aptamer d (ssDNA)
DNA: AGCAGCACAGAGGTCAGATGTCAGATGGCCGGACTCAGGCACTAGACCACTATGCTTCCGTTGCCATTCATCGGCACGTCCTATGCGTGCTACCGTGAA
- Kd [1]: 53 nM

B2: aptamer a (ssDNA)
DNA: AGCAGCACAGAGGTCAGATGTCTTTCATACCGAGGTTGATCCAGTAGTATTCTTATCTAATTTGTTTTGTTCGTATGTGCCCTATGCGTGCTACCGTGAA
- Kd [1]: 65 nM

B3: aptamer c (ssDNA)
DNA: AGCAGCACAGAGGTCAGATGCTTGAGTGTCATGGACGTTCCGGTCTTGGGCGGGATATTTGTTTGTTTTCTGCCTATGTTCCTATGCGTGCTACCGTGAA
- Kd [2]: 34 nM

B4: aptamer b (ssDNA)
DNA: AGCAGCACAGAGGTCAGATGTGGTCTTGTCTTTCATTCCAGGTGGCGAGTCAAATCGATACTGATCCGCTGACACAGGATCCTATGCGTGCTACCGTGAA
- Kd [1]: 86 nM
